Test results as given in publication PMC2435421.

Target: H-2D^b on RMA-S cells (mouse (endogenous in RMA-S))
Assay: flow cytometry on cells

## gp33-wt, LCMV wild-type peptide antigen (gp33 residues 33-41)
  half-life of the peptide-MHC complex (Peptide stability): > 1 h
